Measured values taken from patent US20030129703A1 (Regeneron, published 2003).

Tests used:
[1] = target: T1, hNGΔ133-179Fc (human, UniProt Q13253 28-232); assay: binding to BMP4; assay not detailed
T1 construct: not shown: peptide bridge to the Fc; Fc domain of human IgG1
T1 sequence: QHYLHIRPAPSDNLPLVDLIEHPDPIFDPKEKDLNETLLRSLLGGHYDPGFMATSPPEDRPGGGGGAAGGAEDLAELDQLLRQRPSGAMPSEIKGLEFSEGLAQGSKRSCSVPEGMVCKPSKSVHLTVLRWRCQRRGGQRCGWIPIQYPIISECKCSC

[2] = target: T2, Fc-tagged human noggin (human, UniProt Q13253 28-232); assay: ELISA on plate-coated hBMP4
T2 construct: Secreted protein; also called hNG-Fc; not shown: Fc domain of human IgG1 (BspEI-NotI human IgG1 fragment), hinge and Fc
T2 sequence: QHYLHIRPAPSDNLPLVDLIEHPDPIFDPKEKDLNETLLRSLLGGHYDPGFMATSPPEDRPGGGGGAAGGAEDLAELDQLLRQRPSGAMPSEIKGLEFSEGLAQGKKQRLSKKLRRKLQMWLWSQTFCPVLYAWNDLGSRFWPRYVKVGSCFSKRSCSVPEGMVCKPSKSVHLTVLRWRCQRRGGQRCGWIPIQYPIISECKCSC
Description: Unbound hBMP4 was removed by washing four times with PBS, and the plates were blocked with 1% BSA in PBS. […] After a 1 hour incubation unbound anti-Fc●AP was removed by washing four times with TBS+0.1% Tween and then Alkaline Phosphatase substrate (para-nitrophenyl phosphate; Sigma) was added. Alkaline Phosphatase converts this substrate to a product whose production can be monitored by measuring Absorbance at 405 nm.
To determine if this hNG mutein was active, its ability to bind to hBMP4 was compared with that of hNG-Fc, which binds human Bone Morphogenetic Protein 4 (hBMP4) with affinity essentially identical to that of untagged hNG. An ELISA format assay where hBMP4 is captured on the surface of an ELISA plate was used to compare the two proteins.

B1: human Bone Morphogenetic Protein 4 (ligand, UniProt P12644 293-408, looked up)
chain: SPKHHSQRARKKNKNCRRHSLYVDFSDVGWNDWIVAPPGYQAFYCHGDCPFPLADHLNSTNHAIVQTLVNSVNSSIPKACCVPTELSAISMLYLDEYDKVVLKNYQEMVVEGCGCR
notes: also called hBMP4; BMP4
[1]
  binding result: no binding
[2]
  binding result: binds
